Each block holds one binder with its values, some of them ahead of it. No end group written: not given here.
Columns and labels:
Conditions in all cases: both partners purified
[1] = molecular target: T1, Fc-tagged DR5 ectodomain (long isoform) (human, UniProt O14763 56-210); experiment: peptide or protein array; 18-residue peptides tiled on the array; 500 nM Fc-tagged DR5 ECD in 50 mM HEPES pH 7.2, 250 mM NaCl, 10% glycerol, 1 hr at room temperature; detected with anti-Fc
T1 construct: DR5 extracellular domain, long isoform; 55 kDa on SDS-PAGE by the legend; also called Fc-tagged DR5 ECD; Fc-tagged DR5L ECD; source: recombinant, generated and purified at Genentech Inc

[2] = molecular target: T2, FLAG-tagged DR5 long isoform ECD (human); experiment: SEC; 25 μM recombinant DR5L ECD alone or pre-incubated overnight at 4°C with 100 or 400 μM fluorescein-conjugated peptide or 25 μM TRAIL; SuperDex200 10/300 GL, 30 mM HEPES pH 7.2, 150 mM NaCl; fractions on SDS-PAGE, fluorescence scan and Coomassie
T2 construct: human DR5 ECD, long isoform, residues 72-213; Dimer without peptide by cross-linking; multimers with peptide; also called FLAG-tagged DR5L ECD; recombinant DR5L ECD; source: SF21 (baculovirus), secreted, purified (HisTrapFF, SuperDex200); not shown: FLAG, C-terminal, kept

[3] = molecular target: T1, Fc-tagged DR5 ectodomain (long isoform); experiment: pull-down; Fc-tagged ECD held on Dynabeads Protein G, incubated with peptide in 20 mM HEPES pH 7.2, 100 mM KOAc, 0.2% Tween-20, 1 hr at RT; Coomassie-stained SDS-PAGE

T2 sequence (chain, as listed by the source): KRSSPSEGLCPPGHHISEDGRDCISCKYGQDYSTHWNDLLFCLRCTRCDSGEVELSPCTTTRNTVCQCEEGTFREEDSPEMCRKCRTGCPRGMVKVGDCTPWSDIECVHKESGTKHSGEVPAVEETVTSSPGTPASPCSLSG

- binding result [1]: binds
B1: MPZ-ecto peptide (peptide)
peptide: FTWRYQPEGGRDAISIFHYA
notes: stretch of the ectodomain of human myelin protein zero; The array spots are 18-residue peptides; also called spots C18-C19 of the peptide array; source: synthetic peptide, GenScript (>95% purity); as spots C18-C19 on the peptide array of the MIT Biopolymers Laboratory

- binding result [2]: binds
B2: fluorescein-conjugated MPZ-ecto peptide (peptide)
peptide: FTWRYQPEGGRDAISIFHYA
modifications: also: fluorescein-conjugated, site not given here
notes: stretch of the ectodomain of human myelin protein zero; also called fluorescein-labeled MPZ-ecto peptide; source: synthetic peptide

- binding result [3]: binds
B3: MPZ-ecto^VD peptide (peptide)
peptide: VSDDISFTWRYQPEGGRD
notes: stretch of the ectodomain of human myelin protein zero; source: synthetic peptide, GenScript (>95% purity)

— article PMC7041945, “Misfolded proteins bind and activate death receptor 5 to trigger apoptosis during unresolved endoplasmic reticulum stress” (eLife, 2020)
